From patent US20230374526A1, “FORSKOLIN-INDUCIBLE PROMOTERS AND HYPOXIA-INDUCIBLE PROMOTERS” (ASKLEPIOS BIOPHARMACEUTICAL, INC., priority 2020, published 2023)

B1: FORN-pJB42: synthetic forskolin-inducible promoter, SEQ ID NO: 73; 7×cAMPRE and 6×AP1(3) with pJB42 minimal promoter (nucleic acid)
DNA: AATAAAATATCTTTATTTTCATTACATCTGTGTGTTGGTTTTTTGTGTGCCATTGACGTCACGATTTGACGTCAACCATTGACGTCACGATTTGACGTCAACCATTGACGTCACGATTTGACGTCACGATTTGACGTCAACCATTGACTCACGATTTGACTCAACCATTGACTCACGATTTGACTCAACCATTGACTCACGATTTGACTCACGATTCTGACAAATTCAGTATAAAAGCTTGGGGCTGGGGCCGAGCACTGGGGACTTTGAGGGTGGCCAGGCCAGCGTAGGAGGCCAGCGTAGGATCCTGCTGGGAGCGGGGAACTGAGGGAAGCGACGCCGAGAAAGCAGGCGTACCACGGAGGGAGAGAAAAGCTCCGGAAGCCCAGCAGCGGCCACC
modifications: Synp-FORNpJB42
notes: 7×cAMPRE and 6×AP1(3) with pJB42 minimal promoter
B2: Synp-FORNTATAm6a: synthetic forskolin-inducible promoter, SEQ ID NO: 74; 7×cAMPRE and 6×AP1(3) with TATA-m6A minimal promoter (nucleic acid)
DNA: AATAAAATATCTTTATTTTCATTACATCTGTGTGTTGGTTTTTTGTGTGCCATTGACGTCACGATTTGACGTCAACCATTGACGTCACGATTTGACGTCAACCATTGACGTCACGATTTGACGTCACGATTTGACGTCAACCATTGACTCACGATTTGACTCAACCATTGACTCACGATTTGACTCAACCATTGACTCACGATTTGACTCACGATTTATAAAAGGCAGAGCTCGTTTAGTGAACCGAAGCTTGGACTAAAGCGGACTTGTCTCGAG
modifications: Synp-FORNTATAm6a
notes: 7×cAMPRE and 6×AP1(3) with TATA-m6A minimal promoter
B3: Synp-FORNEW: synthetic forskolin-inducible promoter, SEQ ID NO: 62; 7×cAMPRE and 6×AP1(3) with YB-TATA minimal promoter (nucleic acid)
DNA: AATAAAATATCTTTATTTTCATTACATCTGTGTGTTGGTTTTTTGTGTGCCATTGACGTCACGATTTGACGTCAACCATTGACGTCACGATTTGACGTCAACCATTGACGTCACGATTTGACGTCACGATTTGACGTCAACCATTGACTCACGATTTGACTCAACCATTGACTCACGATTTGACTCAACCATTGACTCACGATTTGACTCACGATTGCGATTAATCCATATGCTCTAGAGGGTATATAATGGGGGCCACTAGTCTACTACCAGAAAGCTTGGTACCGAGCTCGGATCCAGCCACC
modifications: Synp-FORNEW
notes: 7×cAMPRE and 6×AP1(3) with YB-TATA minimal promoter

How the values were obtained:
HEK-293 cells = assay: Optimum inducer concentration to induce expression; format: cell-based, human
Pro10 cells = assay: Rep78 expression via western blot under second generation forskolin-inducible promoters; format: cell-based; conditions: for Rep78 expression in the presence of forskolin: 10 μM forskolin, 24 hrs; for Rep78 expression in the presence of forskolin / Rep78 expression in the absence of forskolin: western blot; for Rep78 expression in the absence of forskolin: DMSO control
Experimental: HEK293-T (ATCC-CRL-3216) cell lines were maintained in DMEM plus 10% FBS as described for HEK293 cells. Plasmids to be transfected were linearised and transfected using Lipofectamine 2000 (Invitrogen, 11668027) as per the manufacturer's instructions. The cells were then cultured for 48 hrs in non-selective medium before being switched to selective medium (standard medium plus Blasticidin 5 ug/ml (Thermofisher, A1113902).
Each of the promoters were tested for their ability to induce expression of the Rep78 protein. To eliminate the expression of Rep52, we have mutated the ATG start codon in Rep52 to an AGG. All constructs were synthesized by Genewiz. Pro10 cells were cultured and transfected using lipofectamine 2000 as previously described. 24 hrs after transfection 10 μM forskolin was added to the cells. Control wells were given DMSO as forskolin was dissolved in this carrier. After another 24 hrs the cells were then lysed and lysates were analysed for Rep78 expression via western blot.
Cells are collected in Eppendorf tubes and centrifuged at 300 g for 5 mins in a tabletop centrifuge. Supernatants are discarded and cell pellets are lysed in 1× radioimmunoprecipitation assay (RIPA) buffer, which is made up of RIPA Lysis & Extraction Buffer (Thermofisher, UK, 89900), 100×Halt Protease Inhibitor (Thermofisher, UK, 78445). After addition of the cell lysis buffer all samples are constantly kept on ice. The samples are vortexed and either stored at −20° C. overnight or kept on ice for 30 mins prior to centrifugation at full speed (21,130 g) in the tabletop centrifuge for 20 mins at 4° C. for the removal of any insoluble material. Cell lysates are mixed with 4×LDS loading sample buffer and 10× sample reducing agent (ThermoFisher, UK, NP0007 and NP0004); they are briefly spun down, heated to 95° C. for 10 mins, allowed to cool to 10° C., briefly spun down again and then separated on polyacrylamide gels (NuPAGE Novex 4-12% Bis-Tris Gels, 1.0 mm; ThermoFisher UK, NP0324BOX), which are allowed to reach room temperature before use. The PageRuler™ Prestained NIR Protein Ladder (ThermoFisher, UK, 26635) is run alongside the cell lysates for size comparison purposes. Gels are run at 150V for 1 hour 15 mins using ThermoFisher's XCell SureLock Mini-Cell system. Gels are then transferred to nitrocellulose membranes using the iBlot 2 Dry Blotting System, p0 programme, (ThermoFisher, UK) according to the manufacturer's instructions. Initially, a total protein stain is performed following the manufacturer's instructions (Revert™ 700 Total Protein Stain for Western Blot Normalization; Licor, UK, 926-11011), and this is followed by immunoblotting of the membranes. The membranes are specifically transferred to falcon tubes where they are first blocked with the Licor Odyssey® blocking buffer at room temperature for 1 hour, followed by probing with suitable primary antibodies resuspended in the Licor Odyssey® blocking buffer in a cold room set at 4° C. overnight. The following day membranes are washed 3× in PBS-T (0.05%) for 5 mins each time and then probed with a suitable secondary antibody for 1.5 hours at room temperature. Secondary antibodies typically contain a fluorescent tag for visualisation purposes. Membranes are washed once again 2× in PBS-T (0.05%) for 5 mins each time followed by a final wash in 1×PBS for 5 mins. The membranes are imaged using an Odyssey® Fc Licor imaging system.
The antibodies used in this experiment were: primary antibody: anti-Rep antibody 303.9 clone (Progen, 61069) and Secondary antibody: LICOR anti-mouse 800 nm (LICOR, 926-32210).
We also tested the ability of the AAV helper functions to induce the activity of the best performing promoter FORN-pJB42. Transfections were carried out as previously described. Conditions are as follows, FORN-pJB42 controlling expression of Rep78 was transfected with and without the adenovirus helper functions. […]

| Molecule | Concentration determined to be optimum to induce expression (HEK-293 cells) | Rep78 expression in the presence of forskolin (Pro10 cells) | Rep78 expression in the absence of forskolin (Pro10 cells) | Promoter activity (Rep78) in the presence of helper functions, absence of forskolin (Pro10 cells; adenovirus helper functions (pHelper), DMSO) | Promoter activity (Rep78) in the presence of helper functions and forskolin (Pro10 cells; adenovirus helper functions and 10 μM forskolin) |
| --- | --- | --- | --- | --- | --- |
| C=C[C@@]1(C)CC(=O)[C@]2(O)[C@@]3(C)[C@@H](O)CCC(C)(C)[C@@H]3[C@H](O)[C@H](OC(C)=O)[C@@]2(C)O1 [Forskolin] | about 18 μM |  |  |  |  |
| B1 |  | strong expression | no Rep78 expression | activated | full activity |
| B2 |  | strong expression | no Rep78 expression |  |  |
| B3 |  | strong expression | no Rep78 expression |  |  |
